Experimental data: publication PMC10140304, “Flagellar brake protein YcgR interacts with motor proteins MotA and FliG to regulate the flagellar rotation speed and direction” (Frontiers in Microbiology, 2023)
Residue numbers refer to the chain shown, from its start. Names may count otherwise.

T1: FliG (E. coli MG1655, UniProt P0ABZ1 1-331)
T1 construct: Flagellar motor switch (rotor) protein FliG, E. coli MG1655; also called individual FliG; rotor protein FliG; source: E. coli BL21 (DE3), purified following Hou et al., 2020
T1 sequence (looked up): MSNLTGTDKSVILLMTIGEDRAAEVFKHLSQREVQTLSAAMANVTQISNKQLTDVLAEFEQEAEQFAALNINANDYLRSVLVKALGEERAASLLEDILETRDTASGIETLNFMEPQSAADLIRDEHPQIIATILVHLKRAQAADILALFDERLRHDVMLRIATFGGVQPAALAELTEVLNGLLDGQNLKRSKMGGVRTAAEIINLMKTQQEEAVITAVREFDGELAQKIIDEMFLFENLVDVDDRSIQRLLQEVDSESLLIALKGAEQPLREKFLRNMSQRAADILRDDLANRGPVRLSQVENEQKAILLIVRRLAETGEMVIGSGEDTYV

T2: mYPet-YcgR-mCyPet (YcgR-biosensor), wild-type E. coli YcgR (E. coli MG1655), P76010
T2 chain: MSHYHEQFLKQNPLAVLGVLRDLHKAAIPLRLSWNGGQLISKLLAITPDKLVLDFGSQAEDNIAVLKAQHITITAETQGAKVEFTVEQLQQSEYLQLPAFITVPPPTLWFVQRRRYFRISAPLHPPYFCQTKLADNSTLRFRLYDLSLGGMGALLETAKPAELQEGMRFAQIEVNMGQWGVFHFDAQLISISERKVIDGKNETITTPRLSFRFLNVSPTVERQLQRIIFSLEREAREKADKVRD

B1: mYPet-YcgR(Q38A/D54A/N62A)-mCyPet mutant biosensor (natural protein, E. coli MG1655, UniProt P76010 1-244, looked up)
chain: T2 chain with Q38A, D54A, N62A
notes: Flagellar brake protein YcgR, E. coli MG1655, triple mutant Q38A/D54A/N62A, between YPet (A206K) and CyPet (A206K); Printed both as QDN/AAA and QND/AAA; also called QDN/AAA; QND/AAA biosensor; source: E. coli BL21 (DE3), purified following Hou et al., 2020; not shown: mYPet (YPet A206K), N-terminal, kept; mCyPet (CyPet A206K), C-terminal, kept
B2: mYPet-YcgR-mCyPet (YcgR-biosensor), wild-type E. coli YcgR (natural protein, E. coli MG1655, UniProt P76010 1-244, looked up)
chain: T2 chain
notes: Flagellar brake protein YcgR, E. coli MG1655, cloned between YPet (A206K) and CyPet (A206K) in an engineered pET15b; YFP and CFP report FRET within one chain; also called YcgR-FRET; FRET-based YcgR biosensor; source: E. coli BL21 (DE3), purified following Hou et al., 2020; not shown: mYPet (YPet A206K), N-terminal, kept; mCyPet (CyPet A206K), C-terminal, kept
B3: mYPet-YcgR(D54A)-mCyPet mutant biosensor (natural protein, E. coli MG1655, UniProt P76010 1-244, looked up)
chain: T2 chain with D54A
notes: Flagellar brake protein YcgR, E. coli MG1655, mutant D54A, between YPet (A206K) and CyPet (A206K); also called YcgR biosensor mutant D54A; source: E. coli BL21 (DE3), purified following Hou et al., 2020; not shown: mYPet (YPet A206K), N-terminal, kept; mCyPet (CyPet A206K), C-terminal, kept
B4: MotAc, cytoplasmic domain of MotA (residues 70-170 of MotA) (domain or fragment, E. coli MG1655, UniProt P09348 70-170, looked up)
chain: YTKAMYMDLLALLYRLMAKSRQMGMFSLERDIENPRESEIFASYPRILADSVMLDFIVDYLRLIISGHMNTFEIEALMDEEIETHESEAEVPANSLALVGD
notes: Flagellar stator protein MotA, E. coli MG1655, cytoplasmic domain, residues 70-170; source: E. coli BL21 (DE3), purified following Hou et al., 2020

Key:
FliG [1] = target: T1, FliG; assay: FRET or BRET; in vitro, intramolecular FRET of 1.5 uM YcgR biosensor oversaturated with excess c-di-GMP (2 mM), titrated with gradient concentrations of motor protein; 25 C, SEC buffer; FRET/CFP ratio fitted to a logistic equation; settings: both partners purified
FliG [2] = target: T1, FliG; assay: FRET or BRET; in vitro, intramolecular FRET of 1.5 uM YcgR biosensor (mYPet-YcgR-mCyPet) titrated with 0-500 uM motor protein, without c-di-GMP; 25 C, SEC buffer (20 mM HEPES pH 7.5, 150 mM NaCl, 10% glycerol); FRET/CFP ratio fitted to a logistic equation; settings: both partners purified
[3] = target: B1; assay: FRET or BRET; in vitro, intramolecular FRET of 1.5 uM YcgR biosensor oversaturated with excess c-di-GMP (2 mM), titrated with gradient concentrations of motor protein; 25 C, SEC buffer; FRET/CFP ratio fitted to a logistic equation; settings: both partners purified
[4] = target: T2, mYPet-YcgR-mCyPet (YcgR-biosensor), …; assay: as above; settings: remark: other sources report otherwise
[5] = target: B1; assay: FRET or BRET; in vitro, intramolecular FRET of 1.5 uM YcgR biosensor (mYPet-YcgR-mCyPet) titrated with 0-500 uM motor protein, without c-di-GMP; 25 C, SEC buffer (20 mM HEPES pH 7.5, 150 mM NaCl, 10% glycerol); FRET/CFP ratio fitted to a logistic equation; settings: both partners purified
[6] = target: B3; assay: as above; settings: both partners purified
[7] = target: T2, mYPet-YcgR-mCyPet (YcgR-biosensor), …; assay: as above; settings: remark: other sources report otherwise

| Binder | Kd (FliG [1]) [µM] | Kd (FliG [2]) [µM] | Kd [3] [µM] | Kd [4] [µM] | Kd [5] [µM] | Kd [6] [µM] | Kd [7] [µM] |
| --- | --- | --- | --- | --- | --- | --- | --- |
| B1 | 235 ± 35.4 | 139 ± 15.6 |  |  |  |  |  |
| B2 | 107 | 143 |  |  |  |  |  |
| B3 | 213 | 141 ± 9.8 |  |  |  |  |  |
| B4 |  |  | 46.1 ± 2.2 | 35.9 | 151 ± 10.2 | 114 ± 11.3 | 123 |
